T1: human TL1A (Fitzgerald, Prod. #30R-AT070) (human, UniProt O95150 72-251, limits assumed, biotinylated with EZ-Link Sulfo-NHS-LC-Biotin where used as soluble antigen)
T1 construct: also called TNFSF15; biotinylated human TL1A
T1 sequence (looked up): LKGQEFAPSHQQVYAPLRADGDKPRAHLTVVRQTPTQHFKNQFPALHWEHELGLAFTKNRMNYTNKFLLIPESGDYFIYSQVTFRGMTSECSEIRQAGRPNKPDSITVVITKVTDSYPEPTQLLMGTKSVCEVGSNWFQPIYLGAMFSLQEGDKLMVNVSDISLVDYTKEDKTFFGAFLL

T2: Fas/TNFSF6 (R&D Systems, cat. no. 126-FL/CF) (UniProt P48023 134-281)
T2 sequence (looked up): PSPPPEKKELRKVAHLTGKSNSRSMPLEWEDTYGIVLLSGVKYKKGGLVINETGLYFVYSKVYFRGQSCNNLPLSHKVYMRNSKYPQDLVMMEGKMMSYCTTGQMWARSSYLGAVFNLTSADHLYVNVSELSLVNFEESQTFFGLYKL


How the values were obtained:
[1] = target: T1, human TL1A (Fitzgerald, Prod. …); assay: capture lift screen and Fab ELISA on coated TL1A
[2] = target: TRAIL/TNFSF10 (R&D Systems, cat. no. 375-TL/CF) (UniProt P50591 114-281); assay: ELISA, antigen coated at 1 µg/ml, Fab titrated
TRAIL/TNFSF10 (R&D Systems, cat. no. 375-TL/CF), sequence (P50591 114-281 limits assumed): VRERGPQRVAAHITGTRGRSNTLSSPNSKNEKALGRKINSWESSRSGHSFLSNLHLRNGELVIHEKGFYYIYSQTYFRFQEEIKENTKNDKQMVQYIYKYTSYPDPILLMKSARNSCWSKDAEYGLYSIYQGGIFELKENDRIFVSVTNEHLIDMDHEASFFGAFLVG
Description: (§1) Next, all the Fab variants were characterized for their selectivity for human TL1A relative to other TNFSF members TRAIL, LIGHT and Fas. […] The plate was washed 3 times with PBS-T and blocked with 100 μl of 1% BSA/PBS. The block was discarded and the Fab variants or control antibodies (Fas/TNFSF6, R&D Systems, cat. no. AF126; TRAIL/TNFSF10, R&D Systems, cat. no. AF375; LIGHT/TNFSF14, R&D Systems, cat. no. AF664) were titrated in 50 μl 1% BSA/PBS and incubated for 1 h at 25° C. The plate was washed 3 times with PBS-T and secondary HRP-conjugated antibody (diluted 5,000-fold in 1% BSA/PBS) was added for 1 h at 25° C. The plate was washed 3 times with PBS-T and developed.

[3] = target: LIGHT/TNFSF14 (R&D Systems, cat. no. 664-LI/CF) (UniProt O43557 74-240); assay: ELISA, antigen coated at 1 µg/ml, Fab titrated
LIGHT/TNFSF14 (R&D Systems, cat. no. 664-LI/CF), sequence (O43557 74-240 limits assumed): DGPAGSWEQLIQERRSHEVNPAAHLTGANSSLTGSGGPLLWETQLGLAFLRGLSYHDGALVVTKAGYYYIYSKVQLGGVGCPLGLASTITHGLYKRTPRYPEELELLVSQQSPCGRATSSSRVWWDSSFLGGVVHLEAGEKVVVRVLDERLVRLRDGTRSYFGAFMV
Description: as §1

[4] = target: T2, Fas/TNFSF6 (R&D Systems, cat. no. …); assay: ELISA, antigen coated at 1 µg/ml, Fab titrated
Description: as §1

Binder | binding result [1] | binding result [2] | binding result [3] | binding result [4]
18-7 (CDR-grafted LC) Fab (Fab, V domains shown, Fab; also called clone 18-7) VH: QVQLVQSGAEVKKPGASVKLSCKASGFDIQDTYMHWVRQAPGQGLEWMGRIDPASGHTKYDPKFQVRVTMTRDTSTSTVYMELSSLRSEDTAVYYCSRSGGLPDVWGQGTTVTVSS VL: EIVLTQSPGTLSLSPGERATLSCRASSSVSYMYWYQQKPGQAPRLLIYATSNLASGIPDRFSGSGSGTDFTLTISRLEPEDFAVYYCQQWSGNPRTFGGGTKLEIK | binds |  |  | 
12835 (humanized 5C3D11) Fab (Fab, V domains shown, Fab) VH: QVQLVQSGAEVKKPGASVKLSCKASGFDIQDTYMHWVRQAPGQGLEWMGRIDPASGHTKYDPKFQVRVTMTTDTSTSTVYMELSSLRSEDTAVYYCSRSGGLPDVWGQGTTVTVSS VL: EIVLTQSPGTLSLSPGERVTMSCRASSSVSYMYWYQQKPGQAPRPWIYATSNLASGVPDRFSGSGSGTDYTLTISRLEPEDFAVYYCQQWSGNPRTFGGGTKLEIK | binds |  |  | 
clone 1-3 Fab (12835 framework variant) (Fab, V domains shown, Fab) VH: QVQLVQSGAEVKKPGASVKLSCKASGFDIQDTYMHWVRQAPGQGLEWMGRIDPASGHTKYDPKFQVRVTMTTDTSTSTVYMELSSLRSEDTAVYYCSRSGGLPDVWGQGTTVTVSS VL: EIVLTQSPGTLSLSPGERVTMSCRASSSVSYMYWYQQKPGQAPRPWIYATSNLASGIPDRFSGSGSGTDYTLTISRLEPEDFAVYYCQQWSGNPRTFGGGTKLEIK | binds |  |  | 
Clone 52 Fab (Fab, V domains shown, Fab) VH: QVQLVQSGAEVKKPGASVKVSCKASGFDIQDTYMHWVRQAPGQGLEWMGRIEPASGHIKYSPKFQGRVTMTRDTSTSTVYMELSSLRSEDTAVYYCARSGGLPDWWGQGTTVTVSS VL: EIVLTQSPGTLSLSPGERATLSCGASSSVSYMYWYQQKPGQAPRLLIYATSNLASGIPDRFSGSGSGTDFTLTISRLEPEDFAVYYCQQWEGNPRTFGGGTKLEIK |  | no binding | no binding | no binding
clone 1-4 Fab (12835 framework variant) (Fab, V domains shown, Fab) VH: QVQLVQSGAEVKKPGASVKLSCKASGFDIQDTYMHWVRQAPGQGLEWMGRIDPASGHTKYDPKFQVRVTMTTDTSTSTVYMELSSLRSEDTAVYYCSRSGGLPDVWGQGTTVTVSS VL: EIVLTQSPGTLSLSPGERVTMSCRASSSVSYMYWYQQKPGQAPRLWIYATSNLASGIPDRFSGSGSGTDYTLTISRLEPEDFAVYYCQQWSGNPRTFGGGTKLEIK | binds |  |  | 
21-3 (CDR-grafted HC) Fab (Fab, V domains shown, Fab; also called clone 21-3) VH: QVQLVQSGAEVKKPGASVKVSCKASGFDIQDTYMHWVRQAPGQGLEWMGRIDPASGHTKYDPKFQVRVTMTRDTSTSTVYMELSSLRSEDTAVYYCARSGGLPDVWGQGTTVTVSS VL: EIVLTQSPGTLSLSPGERATLSCRASSSVSYMYWYQQKPGQAPRLLIYATSNLASGVPDRFSGSGSGTDYTLTISRLEPEDFAVYYCQQWSGNPRTFGGGTKLEIK | binds |  |  | 
Clone 53 Fab (Fab, V domains shown, Fab; also called variant 53) VH: QVQLVQSGAEVKKPGASVKVSCKASGFDIQDTYMHWVRQAPGQGLEWMGRIEPASGHLKYDPKFQERVTMTRDTSTSTVYMELSSLRSEDTAVYYCARSGGLPDKWGQGTTVTVSS VL: EIVLTQSPGTLSLSPGERATLSCRASSSVSYMYWYQQKPGQAPRLLIYATSNLASGIPDRFSGSGSGTDFTLTISRLEPEDFAVYYCQQWEGNPRTFGGGTKLEIK |  | no binding | no binding | no binding
Clone X Fab (Fab, V domains shown, Fab) VH: QVQLVQSGAEVKKPGASVKVSCKASGFDIQDTYMHWVRQAPGQGLEWMGRIDPASGHTKYDPKFQGRATITTDTSASTAYLQLSSLRSEDTAVYYCARSGGLPDFWGQGTTVTVSS VL: EIVLTQSPGTLSLSPGERATLSCRASSSVSYMYWYQQKPGQAPRLLIYATSNLASGIPDRFSGSGSGTDFTLTISRLEPEDFAVYYCQQWSGNPRTFGGGTKLEIK |  | no binding | no binding | no binding

Source: patent publication US20240368263A1 (PROMETHEUS BIOSCIENCES, published 2024)
